Laboratory results reported in publication PMC5300155, “Biochemical and biophysical investigations of the interaction between human glucokinase and pro-apoptotic BAD” (PLoS ONE, 2017).

T1: human pancreatic GCK (Homo sapiens, UniProt P35557)
T1 construct: hexahistidine (N); made in house; host or cells: glucokinase auxotroph BM5340(DE3)
T1 sequence (P35557 1-465): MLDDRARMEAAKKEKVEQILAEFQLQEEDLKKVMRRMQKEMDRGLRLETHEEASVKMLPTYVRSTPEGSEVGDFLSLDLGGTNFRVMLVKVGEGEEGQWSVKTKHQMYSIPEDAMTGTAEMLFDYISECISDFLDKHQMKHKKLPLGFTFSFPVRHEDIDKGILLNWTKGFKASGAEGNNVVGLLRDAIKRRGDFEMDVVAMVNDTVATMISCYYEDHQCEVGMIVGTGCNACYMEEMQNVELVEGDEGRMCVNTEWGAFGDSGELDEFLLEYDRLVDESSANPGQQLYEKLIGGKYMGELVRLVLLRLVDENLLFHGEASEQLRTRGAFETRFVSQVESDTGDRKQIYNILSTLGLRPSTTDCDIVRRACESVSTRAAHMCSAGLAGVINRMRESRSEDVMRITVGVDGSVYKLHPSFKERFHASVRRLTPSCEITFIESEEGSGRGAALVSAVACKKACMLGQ


Legend:
Bcl-xL = biological target: T2, Bcl-xL (Homo sapiens, UniProt Q07817, DEL45-84); experiment: Fluorescence polarization competition with f-BH3 for binding to Bcl-xL
T2 construct: made in house
Procedure: Exon 1 of human bcl-xl lacking the C-terminal residues 189–233 was obtained from Stanley Korsmeyer (Addgene plasmid 8755) and site-directed mutagenesis was performed to create the Δ45–84, Δ210–233 variant. Bcl-xL was expressed and purified using a modified procedure described previously. Briefly, Bcl-xL was purified by nickel affinity chromatography and dialyzed against potassium phosphate buffer (20 mM, pH 7.4) containing NaCl (50 mM), EDTA (1 mM), and DTT (10 mM). Protein was applied to a Superdex 200 10/30 HR size-exclusion column, at a flow rate of 0.02 mL/min, to remove aggregate and oligomers prior to binding assays.
A fluorescence polarization assay developed by Zhang, et al. was utilized to measure interactions between BAD and its binding partners. Two 21-residue FITC-labeled peptides containing the BH3 domain of BAD were synthesized and purified to >95% by Peptide2.0 (f-BH3 = NLWAAQRYGRELRRMSDK(FITC)FVD; f-pBH3 = NLWAAQRYGRELRRM(p)SDK(FITC) FVD). Polarization was measured at room temperature with an excitation wavelength of 485 nm and an emission wavelength of 530 nm using a SpectraMax M5 microplate reader (Molecular Devices). Experiments to measure binding constants of the fluorescent peptides to Bcl-xL or GCK were performed in black 96-well plates. Each well contained 15 nM peptide, 60 μL BAD buffer (0.1 M Tris, 0.1 M KCl, 0.5 M arginine, 2.5 mM CHAPS, 5 mM TCEP, 10% glycerol, pH 8.5) and variable concentrations of Bcl-xL (0–2.25 μM) or GCK (0–400 μM) in assay buffer (20 mM phosphate buffer, pH 7.4, 1 mM EDTA, 50 mM NaCl, 10 mM DTT) in a final volume of 120 μL. High GCK concentrations were chosen in an effort to detect a signal indicating a binding event. Assays containing GCK also contained 250 mM glucose. […] Plates were incubated at room temperature in the dark for 15 min prior to polarization measurements.

human pancreatic GCK [1] = biological target: T1, human pancreatic GCK; experiment: GCK activity, G6PDH-linked assay (lab's routine assay, 25°C); format: biochemical
Procedure: Recombinant human pancreatic GCK containing an N-terminal hexahistidine tag was produced in the glucokinase auxotroph BM5340(DE3) and purified using a previously described procedure. TEV protease was expressed as a GST-fusion protein from a pGEX plasmid encoding the S219V variant, provided by David Waugh (Addgene plasmid 8827). Expression was induced with IPTG (1 mM) for 4 h at 30°C. Cell pellets were resuspended in Tris buffer (50 mM, pH 8.0) containing NaCl (100 mM), glycerol (10% v/v), benzamidine (1 mM) and dithiothreitol (10 mM) and lysed via French Press. Polyethyleneimine (0.1%) was added to the lysate and protein was purified on a glutathione-affinity column (GSTrap, GE Sciences). TEV protease was flash frozen and stored at -80°C for up to 1 month.
GCK activity was assayed using a glucose 6-phosphate dehydrogenase (G6PDH)-linked assay at 25°C. 50 nM GCK was assayed in buffer containing HEPES (100 mM, pH 7.4), KCl (50 mM), NADP^+ (0.5 mM), DTT (10 mM), MgCl2 (7 mM), G6PDH (1.5 U) and glucose (0–100 mM) in a total volume of […]. Addition of ATP (6 mM) initiated the reaction. Production of NADPH was measured at 340 nm. To determine the effect of BAD on GCK activity, 5 μL of BAD or buffer control was added to the reaction in a final volume of 100 μL. K0.5 values were determined by fitting to the Hill equation. The effect of BAD on GCK activity is reported as the percent rate increase at individual glucose concentrations, calculated as the average of a minimum of four rates of BAD-containing assays divided by the average of rates of BAD buffer-containing assays. The results represent the average of at least three independent preparations of pure BAD.

human pancreatic GCK [2] = biological target: T1, human pancreatic GCK; experiment: Analytical ultracentrifugation sedimentation velocity of equimolar mixtures with GCK; format: binding; settings: equimolar mixture, BAD buffer pH 8.5, 20°C, 50,000 x g
Procedure: Sedimentation velocity experiments were conducted with an Optima XLI Ultracentrifuge (Beckman Coulter) using a four-hole rotor with three 420 μL samples in standard double-sector Epon centerpieces equipped with sapphire windows. Absorbance and interference data were collected simultaneously. Size-exclusion purified proteins were concentrated to OD280 nm = 0.3–1.0 prior to centrifugation. For complex formation, proteins were mixed in a 1:1 molar ratio in BAD buffer (0.1 M Tris, 0.1 M KCl, 0.5 M arginine, 2.5 mM CHAPS, 5 mM TCEP, 10% glycerol, pH 8.5) and incubated on ice 30 min prior to the start of the experiment. Experiments were carried out at 20°C and 50,000 x g. Data were analyzed with Ultrascan III software using a minimum of 70 scans per sample for analysis. Van Holde-Weischet analysis was performed to obtain S20,W values.

[3] = produced in Escherichia coli; ref [30]; cited from earlier work
Excerpt: To facilitate biochemical characterization of the BAD:GCK complex, we sought a method to produce functional, recombinant human BAD. Several groups have used microbial hosts to produce BAD, however, functional characterization of the resulting protein was limited.

T2 sequence (Q07817 with tags, fused parts or gaps DEL45-84): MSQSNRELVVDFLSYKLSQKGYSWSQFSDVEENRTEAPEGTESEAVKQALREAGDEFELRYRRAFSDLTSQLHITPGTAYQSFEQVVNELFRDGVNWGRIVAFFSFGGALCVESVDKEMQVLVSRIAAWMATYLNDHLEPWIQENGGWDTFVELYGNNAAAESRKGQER

Molecule	Ability to interact with Bcl-xL (in words) (Bcl-xL; ITC and fluorescence polarization assays)	Hill coefficient H of GCK in presence of pBH3 (human pancreatic GCK [1]; Fig 6B, GCK alone: H = 1.4)	K0.5 (glucose) of GCK in presence of pBH3 (human pancreatic GCK [1]; Fig 6B, GCK alone: K0.5 = 4.6 mM, Hill equation fit)	kcat of GCK in presence of pBH3 (human pancreatic GCK [1]; Fig 6B, GCK alone: kcat = 33.2 s^-1)	Change in GCK activity, peptide up to 50 μM (human pancreatic GCK [1]; peptide concentrations up to 50 μM)	Effect on kcat, K0.5 or Hill coefficient of GCK (peptide) (human pancreatic GCK [1]; peptide up to 5 μM)	IC50 (Bcl-xL; 200 nM f-BH3, 50 nM Bcl-xL, competitor 0–50 μM, room temperature, 15 min)	Complex with GCK by analytical ultracentrifugation (human pancreatic GCK [2])	Increase in GCK rate (human pancreatic GCK [1]; 0.8 mM glucose, BAD-GST ≥ 2 μM, average of at least three independent BAD preparations)	Effect on kcat, K0.5 or Hill coefficient of GCK (BAD-GST) (human pancreatic GCK [1]; BAD-GST 8 μM, variable glucose)	Stimulation of GCK activity (in words) (human pancreatic GCK [1]; glucose 0.5–1.0 mM)	Increase in GCK activity (abstract) (human pancreatic GCK [1]; high concentrations of recombinant BAD, glucose well below K0.5)	Proteolysis of recombinant BAD [3]
NLWAAQRYGRELRRM(p)SDKFVD [pBH3, 21-residue phosphorylated peptide containing the BH3 domain of BAD]	significantly impaired in their ability to interact with Bcl-xL	1.5	3.7 mM	31.4 s^-1	no change in GCK activity	does not impact the kcat, K0.5 or Hill coefficient of human GCK	–	–	–	–	–	–	–
BAD-GST: recombinant human BAD with N-terminal hexahistidine tag and C-terminal GST fusion, TEV consensus sequence between (protein, left off: His6, N-terminal, state not stated | GST, C-terminal, kept) MFQIPEFEPSEQEDSSSAERGLGPSPAGDGPSGSGKHHRQAPGLLWDASHQQEQPTSSSHHGGAGAVEIRSRHSSYPAGTEDDEGMGEEPSPFRGRSRSAPPNLWAAQRYGRELRRMSDEFVDSFKKGLPRPKSAGTATQMRQSSSWTRVFQSWWDRNLGRGSSAPSQ	–	–	–	–	–	–	130 nM	does not reveal a higher molecular weight component indicative of complex formation	10%	does not alter the kcat, K0.5 or Hill coefficient of GCK	small, but statistically significant extent	< 15%	highly susceptible to proteolysis
